Laboratory results: publication PMC5173032

Target: human coagulation factor XII (purchased, not His-tagged) (human)

B1: 1M-265Rdel-hPEPD (domain or fragment)
chain: TIQNGDMCLFDMGGEYYCFASDITCSFPANGKFTADQKAVYEAVLRSSRAVMGAMKPGVWWPDMHRLADRIHLEELAHMGILSGSVDAMVQAHLGAVFMPHGLGHFLGIDVHDVGGYPEGVERIDEPGLRSLRTARHLQPGMVLTVEPGIYFIDHLLDEALADPARASFLNREVLQRFRGFGGVRIEEDVVVTDSGIELLTCVPRTVEEIEACMAGCDKAFTPFSGPK
FXII activation relative to hPEPD, chromogenic assay (mutant 40 and 400 nM, FXII 0.97 nM, ZnCl2-containing PBS, RT): 50%
